Experimental data published in patent publication US20260008815A1, “CYCLIC PEPTIDE OR SALT THEREOF, AND USES THEREOF” (FUJIFILM Corporation, priority 2023, published 2026).
Bridge positions count the residues as written; N and C are the ends. Ends that are not written are not given here. COCH2 = acetyl group that carries the bridge

Columns and labels:
bovine myoblasts = assay: Bovine myoblast proliferation-promoting effect; assay type: cell-based, Japanese Black cattle; settings: of 30 ng/mL bFGF (=100, negative control =0); 0.03 to 10 nmol/L complex, 4 days
Protocol: The bovine cells (myoblasts) proliferation-promoting effect of the cyclic peptide complex was evaluated.
Bovine myoblasts were separated from bovine muscle tissue by the following method. First, muscle tissue of Japanese Black cattle was finely chopped in HBSS (−) (phenol red-free) (FUJIFILM Wako Pure Chemical Corporation, 085-09355), and then pronase from Streptomyces griseus (Sigma-Aldrich, 10165921001) was added thereto to a final concentration of 1 mg/mL, and the mixture was allowed to stand at 37° C. for 1 hour. After allowing to stand, HBSS containing 10% FBS was added thereto, and the cells were acquired by centrifugation. The acquired cells were suspended in D-MEM (high glucose) (containing L-glutamine and phenol red) (FUJIFILM Wako Pure Chemical Corporation, 044-29765) containing 10% final concentration of bovine serum and 30 ng/mL bFGF. Suspended cells were cultured in a culture flask coated with an iMatrix-511 solution (FUJIFILM Wako Pure Chemical Corporation, 381-07363) at 0.55 μg/cm^2. […]
The evaluation of the proliferation-promoting effect on bovine myoblasts was performed by the following method. […] The number of viable cells was calculated from the imaging data and normalized by setting the number of viable cells in the well to which 30 ng/mL bFGF was added to 100, and setting the number of viable cells in the negative control well to 0.

[1] = biological target: T1, FGFR3 Protein, Human, Recombinant (ECD, His Tag) (Sino Biological, 16044-H08H) (human, UniProt P22607 23-375); assay: SPR, 1 umol/L FGFR over immobilized peptide
T1 construct: extracellular domain; bought; not shown: His tag
T1 sequence (looked up): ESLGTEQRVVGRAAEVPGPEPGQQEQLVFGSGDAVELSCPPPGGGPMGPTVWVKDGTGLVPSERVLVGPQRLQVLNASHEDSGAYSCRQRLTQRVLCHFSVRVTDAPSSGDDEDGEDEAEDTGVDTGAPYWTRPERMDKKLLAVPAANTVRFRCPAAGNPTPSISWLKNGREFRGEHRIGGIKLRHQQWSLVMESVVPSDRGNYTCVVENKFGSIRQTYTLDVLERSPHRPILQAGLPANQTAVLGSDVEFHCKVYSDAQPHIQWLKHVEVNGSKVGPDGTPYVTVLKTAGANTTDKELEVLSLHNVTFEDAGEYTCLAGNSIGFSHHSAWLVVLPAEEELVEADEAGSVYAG
Protocol: (§1) Next, 70 μL of a mixed aqueous solution of 0.2 mol/L 1-(3-dimethylaminopropyl)-3-ethylcarbodiimide (EDC) and 0.05 mol/L N-hydroxysuccinimide (NHS) was added to activate the sensor chip. Then, a cyclic peptide prepared to 2 mg/mL in HBS-EP buffer was added thereto to perform immobilization at about 200 RU. Thereafter, the blocking treatment was performed with an ethanolamine solution. In addition, in another flow channel of the same sensor chip, blocking treatment was performed immediately after activation without immobilizing FGFR.
(§2) After various FGFRs (FGFR1 Protein, Human, Recombinant (His Tag) (Sino Biological, 10616-H08H), FGFR2 Protein, Human, Recombinant (His Tag) (Sino Biological, 10824-H08H), FGFR3 Protein, Human, Recombinant (ECD, His Tag) (Sino Biological, 16044-H08H), FGFR4 Protein, Human, Recombinant (His Tag) (Sino Biological, 10538-H08H)) diluted with HBS-EP to 1 μmol/L at 25° C. was added to each flow channel of the cyclic peptide-immobilized sensor chip prepared above, for 10 minutes, HBS-EP was allowed to flow as a running buffer for 30 minutes, and the binding of various FGFRs to the cyclic peptide was measured. Thereafter, a regeneration treatment of removing the bound FGFR was performed by repeating the flow of a regeneration liquid in which sodium chloride (final concentration: 0.4 mol/L) and a sodium dodecyl sulfate aqueous solution (mixed concentration: 1%, final concentration: 0.2%) were dissolved in Glysine 1.5 (Cytiva, BR100354) for 1 minute in each flow channel twice. The binding amount of the cyclic peptide was evaluated from the difference between the measured value of Biacore-T200 in the flow channel in which the cyclic peptide was immobilized and the measured value of Biacore-T200 in the flow channel in which the cyclic peptide was not immobilized, in a case where 1 μmol/L FGFR was allowed to flow.
(§3) The binding amount of FGFR evaluated above was normalized to the binding amount of FGFR molecules per one molecule of the cyclic peptide using the molecular weights of the cyclic peptide and FGFR, and the binding affinity to FGFR was evaluated according to the following evaluation criteria. The evaluation result preferably satisfies the evaluation criteria A, B, or C.

[2] = biological target: T2, FGFR2 Protein, Human, Recombinant (His Tag) (Sino Biological, 10824-H08H) (human, UniProt P21802 22-377); assay: SPR, 1 umol/L FGFR over immobilized peptide
T2 construct: bought; not shown: His tag
Protocol: as §1, §2, §3

[3] = biological target: T3, FGFR4 Protein, Human, Recombinant (His Tag) (Sino Biological, 10538-H08H) (human, UniProt P22455 22-369); assay: SPR, 1 umol/L FGFR over immobilized peptide
T3 construct: bought; not shown: His tag
T3 sequence (looked up): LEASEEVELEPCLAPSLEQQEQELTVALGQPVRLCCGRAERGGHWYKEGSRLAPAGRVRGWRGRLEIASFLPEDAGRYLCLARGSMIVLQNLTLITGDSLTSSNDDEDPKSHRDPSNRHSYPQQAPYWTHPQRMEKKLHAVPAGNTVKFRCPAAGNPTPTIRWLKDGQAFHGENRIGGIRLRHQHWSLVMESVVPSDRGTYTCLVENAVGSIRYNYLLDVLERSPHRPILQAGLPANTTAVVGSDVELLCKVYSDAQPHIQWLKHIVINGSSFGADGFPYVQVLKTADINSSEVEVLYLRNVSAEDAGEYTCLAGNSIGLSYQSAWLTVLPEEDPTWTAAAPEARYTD
Protocol: as §1, §2, §3

[4] = biological target: T4, FGFR1 Protein, Human, Recombinant (His Tag) (Sino Biological, 10616-H08H) (human, UniProt P11362 22-376); assay: SPR, 1 umol/L FGFR over immobilized peptide
T4 construct: bought; not shown: His tag
T4 sequence (looked up): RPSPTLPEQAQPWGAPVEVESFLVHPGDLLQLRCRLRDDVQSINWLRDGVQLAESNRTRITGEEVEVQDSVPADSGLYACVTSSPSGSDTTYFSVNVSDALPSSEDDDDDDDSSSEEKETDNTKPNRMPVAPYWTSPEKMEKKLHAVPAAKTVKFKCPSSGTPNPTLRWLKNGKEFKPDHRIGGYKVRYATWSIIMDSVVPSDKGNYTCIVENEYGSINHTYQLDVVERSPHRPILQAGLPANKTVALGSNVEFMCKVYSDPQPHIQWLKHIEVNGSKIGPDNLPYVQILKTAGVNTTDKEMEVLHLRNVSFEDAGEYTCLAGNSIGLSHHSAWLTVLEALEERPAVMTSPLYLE
Protocol: as §1, §2, §3

[5] = biological target: T5, Recombinant Human FGFR2 alpha (IIIc) Fc Chimera Protein, CF (R&D systems, 712-FR-050) (human, UniProt P21802 22-377); assay: SPR, 10 nmol/L peptide over immobilized FGFR2-Fc
T5 construct: bought; not shown: Fc part of the chimera
Protocol: A CM5 sensor chip (Cytiva, 29149603) was set in Biacore-T200 (manufactured by Cytiva) which is a surface plasmon resonance device, and an HBS-EP buffer (Cytiva, BR100826) was added as a running buffer at a flow rate of 10 μL/min to equilibrate the flow channel. Next, 70 μL of a mixed aqueous solution of 0.2 mol/L 1-(3-dimethylaminopropyl)-3-ethylcarbodiimide (EDC) and 0.05 mol/L N-hydroxysuccinimide (NHS) was added to activate the sensor chip. Then, Recombinant Human FGFR2 alpha (IIIc) Fc Chimera Protein CF (R&D systems, 712-FR-050) prepared at 50 nmol/L in an Acetate 4.5 buffer (Cytiva, BR100350) was added thereto to perform immobilization at about 5000 RU. Thereafter, the blocking treatment was performed with an ethanolamine solution. In addition, in another flow channel of the same sensor chip, blocking treatment was performed immediately after activation without immobilizing FGFR.
A cyclic peptide diluted to 10 nmol/L using HBS-EP was added to each flow channel of the FGFR-immobilized sensor chip produced above at 25° C. for 10 minutes, then HBS-EP was allowed to flow as a running buffer for 30 minutes, and the binding of the cyclic peptide to FGFR was measured. Thereafter, a regeneration treatment of removing the bound cyclic peptide was performed by repeating the flow of a regeneration liquid in which sodium chloride powder was dissolved in Glysine 1.5 (Cytiva, BR100354) to a final concentration of 0.15 mol/L for 1 minute in each flow channel twice. The binding amount of the cyclic peptide was evaluated from the difference between the measured value of Biacore-T200 in the flow channel in which FGFR was immobilized and the measured value of Biacore-T200 in the flow channel in which FGFR was not immobilated, in a case where a 10 nmol/L cyclic peptide was allowed to flow.

T5 sequence (P21802 22-377, change not shown): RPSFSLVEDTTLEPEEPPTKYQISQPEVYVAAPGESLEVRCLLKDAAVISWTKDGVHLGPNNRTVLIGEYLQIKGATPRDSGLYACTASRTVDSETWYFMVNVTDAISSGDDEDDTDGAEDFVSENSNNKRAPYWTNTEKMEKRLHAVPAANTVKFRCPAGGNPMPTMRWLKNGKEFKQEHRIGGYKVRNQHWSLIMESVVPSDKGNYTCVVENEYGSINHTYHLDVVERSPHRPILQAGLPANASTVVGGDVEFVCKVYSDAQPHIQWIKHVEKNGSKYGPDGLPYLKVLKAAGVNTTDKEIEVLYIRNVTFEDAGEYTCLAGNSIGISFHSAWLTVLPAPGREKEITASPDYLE
T2 sequence (P21802 22-377 limits assumed): as the sequence (P21802 22-377, change not shown) above

Molecule	bovine myoblast proliferation action (bovine myoblasts)	binding amount (SPR, FGFR molecules bound per cyclic peptide molecule) [1]	binding amount (SPR, FGFR molecules bound per cyclic peptide molecule) [2]	binding amount (SPR, FGFR molecules bound per cyclic peptide molecule) [3]	binding amount (SPR, FGFR molecules bound per cyclic peptide molecule) [4]	binding amount (SPR, cyclic peptide molecules bound per FGFR molecule at 10 nmol/L peptide) [5]
Q-(C)-PQNFINPVQWRYFQHY-(K(acetyl))-NK (QCPQNFINPVQWRYFQHYK(COCH2)NKQCPQNFINPVQWRYFQHYK(COCH2)NK; thioether 2-19, 23-40; not fully specified (N-terminus, bridges); also: Bis-NHS-PEG9 crosslink, dimer of two 21-mers) [SEQ ID NO: 458, cyclic peptide complex; N-terminal acetylation, crosslinking between side chain amino groups of K via Bis-NHS-PEG9]	about 40%	–	–	–	–	–
YCEENYLDPEQYQYFIYFK(COCH2)YKKK (thioether 2-19, chemically synthesized) [cyclic peptide SEQ ID NO: 450]	–	0.01 to 0.05 moleculesoffgfr/onemoleculeofthecyclicpeptide	≥ 0.05 moleculesoffgfr/onemoleculeofthecyclicpeptide	0.01 to 0.05 moleculesoffgfr/onemoleculeofthecyclicpeptide	0.01 to 0.05 moleculesoffgfr/onemoleculeofthecyclicpeptide	≥ 0.7 moleculesofthecyclicpeptide/onemoleculeoffgfr
